Source: patent US20250277048A1 (Regeneron, published 2025)

T1: mouse CD40 extracellular domain expressed with a C-terminal myc-myc-hexahistidine tag (mouse)
T1 construct: also called mCD40-MMH; REGN3098
T1 chain: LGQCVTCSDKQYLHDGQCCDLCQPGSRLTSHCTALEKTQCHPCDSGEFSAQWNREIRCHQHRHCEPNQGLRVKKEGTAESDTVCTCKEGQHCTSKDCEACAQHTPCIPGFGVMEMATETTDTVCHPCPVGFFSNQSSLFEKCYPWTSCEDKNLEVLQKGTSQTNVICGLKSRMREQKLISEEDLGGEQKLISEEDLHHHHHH

T2: monkey CD40 extracellular domain expressed with a C-terminal myc-myc-hexahistidine tag (monkey)
T2 construct: also called mfCD40-MMH; REGN3097
T2 chain: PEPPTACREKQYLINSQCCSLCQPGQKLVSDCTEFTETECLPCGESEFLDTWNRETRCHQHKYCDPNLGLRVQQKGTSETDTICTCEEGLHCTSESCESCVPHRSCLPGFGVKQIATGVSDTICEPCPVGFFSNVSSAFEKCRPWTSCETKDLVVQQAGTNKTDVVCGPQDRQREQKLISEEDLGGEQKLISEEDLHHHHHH


Legend:
[1] = molecular target: T3, human CD40 (hCD40) expressed on cells (human, UniProt P25942 21-277); experiment: flow cytometry, Ramos 2G6.4C10 cells
T3 construct: whole, on cells; one entry for transfected and endogenous human CD40; the cell line is named under assay or readout; also called HEK293/D9/hCD40; Ramos 2G6.4C10
T3 sequence (P25942 21-277): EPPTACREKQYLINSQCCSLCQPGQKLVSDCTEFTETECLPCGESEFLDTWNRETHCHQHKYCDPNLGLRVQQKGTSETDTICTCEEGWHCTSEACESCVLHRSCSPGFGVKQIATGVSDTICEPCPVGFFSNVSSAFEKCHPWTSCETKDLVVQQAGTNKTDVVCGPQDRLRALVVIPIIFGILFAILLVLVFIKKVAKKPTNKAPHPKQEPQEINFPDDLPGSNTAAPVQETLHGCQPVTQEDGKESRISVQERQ
Description: Cells were washed with 2% FBS (w/v) in 1×PBS (flow cytometry staining buffer) by centrifugation with benchtop Centrifuge 5810R (Eppendorf®, Hamburg, Germany). Cells were incubated for 30 minutes at 4° C. with serial dilutions of following antibodies ranging from 1.7 pM to 100 nM in flow cytometry staining buffer (1) anti-CD40×CD40 bispecific antibodies, or (2) parental anti-CD40 antibodies (bivalent antibodies comprising 2 fragment antigen-binding [Fab] arms identical to one of the two anti-CD40 Fab of bispecific anti-CD40×CD40 antibodies), or (3) anti-CD40×Irrelevant antibodies (bivalent antibodies that incorporate one Fab arm identical to one of anti-CD40 Fab of anti-CD40×CD40 antibodies and another Fab arm specific to an irrelevant antigen, i.e. birch pollen main allergen Bet v1), or (4) human IgG4 isotype control antibodies with Fc mutation. After washing, cell bound antibodies were detected with 2.5 μg/ml Allophycocyanin (APC)-conjugated goat anti-human IgG antibody specific for the Fcγ fragment (Jackson Immunoresearch, West Grove, PA) for 30 minutes at 4° C. Cells were washed and subsequently fixed with 50% solution of Cytofix™ Fixation Buffer (BD, Franklin Lakes, NJ) in flow cytometry staining buffer for 20 minutes at room temperature. Cells were washed and resuspended in flow cytometry staining buffer and stored at 4° C. for downstream flow cytometry analysis.
Acquisition of fluorescence signals were recorded on the ZE5 Cell Analyzer (Bio-Rad, Hercules, CA) according to the manufacturer's recommended procedure and flow cytometry data analysis was performed using the open-source R packages flowCore, flowStats, flowDensity, ggCyto, and flowAI. Multiplexed samples were deconvoluted and individual cell populations were identified based on their unique CellTrace™ fluorescence signature. APC Median Fluorescence intensity (MFI) was recorded to indicate the binding intensity of each antibody over a range of concentrations. Antibodies with MFI greater than 1500 at the highest tested concentration (100 nM) were classified as specific binders. In addition, direct binding signals (APC MFI) were analyzed as a function of the antibody concentration and data were fitted with a sigmoidal (four-parameter logistic) dose-response model using GraphPad Prism™ software.

[2] = molecular target: T4, human CD40 extracellular domain expressed with a C-terminal myc-myc-hexahistidine tag (human); experiment: SPR Biacore 4000, mAb captured, 25C
T4 construct: also called hCD40-MMH; hCD40-mmH
Description: (§1) The equilibrium dissociation constants (KD) for anti-CD40 bivalent and bispecific monoclonal antibodies (mAbs) were determined using a real-time surface plasmon resonance (SPR)-based Biacore 4000 biosensor. All binding studies were performed in 10 mM HEPES, 150 mM NaCl, 3 mM EDTA, and 0.05% v/v surfactant Tween-20, pH 7.4 (HBS-ET) running buffer at 25° C. and 37° C. The Biacore CM5 sensor surface was first derivatized by amine coupling with a monoclonal mouse anti-human Fc antibody (REGN2567) to capture anti-CD40 bivalent parental and anti-CD40×CD40 bispecific antibodies. Different concentrations of CD40 reagents, human CD40 extracellular domain expressed with a C-terminal myc-myc-hexahistidine tag (SEQ ID NO: 1114) (“hCD40-MMH”; REGN3094; SEQ ID NO: 53), monkey CD40 extracellular domain expressed with a C-terminal myc-myc-hexahistidine tag (SEQ ID NO: 1114) (“mfCD40-MMH”; REGN3097; SEQ ID NO: 54), and mouse CD40 extracellular domain expressed with a C-terminal myc-myc-hexahistidine tag (SEQ ID NO: 1114) (“mCD40-MMH”; REGN3098; SEQ ID NO: 55), at concentrations ranging from 3.7 nM to 100 nM or 3.3 nM to 90 nM in a series of 3-fold dilutions prepared in HBS-ET running buffer were injected at a flow rate of 30 μL/min for 4 minutes or 50 μL/min for 5 minutes. The dissociation of different CD40 reagents bound to anti-CD40 bivalent parental and anti-CD40×CD40 bispecific antibodies was monitored for 10 minutes in HBS-ET running buffer. At the end of each cycle, the anti-CD40 bivalent parental and anti-CD40×CD40 bispecific antibodies capture surface was regenerated using a 12 sec injection of 20 mM H₃PO₄.
(§2) The association rate (ka) and dissociation rate (kd) were determined by fitting the real-time binding sensorgrams to a 1:1 binding model with mass transport limitation using Scrubber 2.0c curve-fitting software. Binding dissociation equilibrium constant (KD) and dissociative half-life (t_{1/2}) were calculated from the kinetic rates as: KD(M)=kd/kₐ, and t_{1/2} (min)=[ln(2)/(60*kd)].

[3] = molecular target: T1, mouse CD40 extracellular domain …; experiment: SPR Biacore 4000, mAb captured, 25C
Description: as §1, §2

[4] = molecular target: T2, monkey CD40 extracellular domain …; experiment: SPR Biacore 4000, mAb captured, 25C
Description: as §1, §2

[5] = molecular target: T3, human CD40 (hCD40) expressed on cells; experiment: cell-based or functional assay

Binder	EC50 [1] [nM]	MFI at 100 nM [1] [MFI]	100 nM Ag Bound [2] [RU]	Kd [2] [nM]	koff [2] [s⁻¹]	kon [2] [M⁻¹ s⁻¹]	t1/2 [2] [min]	100 nM Ag Bound [3] [RU]	100 nM Ag Bound [4] [RU]	Kd [4] [nM]	koff [4] [s⁻¹]	kon [4] [M⁻¹ s⁻¹]	t1/2 [4] [min]	IC50, 10 nM hCD40L, THP-1 NFkB-luc [5] [nM]	Max % activation, no ligand, THP-1 NFkB-luc [5] [%]	Max % inhibition, 10 nM hCD40L, THP-1 NFkB-luc [5] [%]	binding result [3]	EC50 (potentiation), 10 nM hCD40L, THP-1 NFkB-luc [5] [nM]
REGN16431 (bispecific antibody, human IgG4 S228P, kappa, D1 arm from 21519P2, D2 arm from 21520P2, common light chain; also called CD40xCD40 (21519 x 21520)) heavy 1: QLQLQESGPGLVRPSETLSLTCSVSGASMNTNNYYWGWIRQPPGKGLEWIGSGYYNGNTYYNPSLKSRVTISVDTSKNQFSLKLNSVTAADTAVYYCARQTPPRIIGSPNIWGQGTMVTVSSASTKGPSVFPLAPCSRSTSESTAALGCLVKDYFPEPVTVSWNSGALTSGVHTFPAVLQSSGLYSLSSVVTVPSSSLGTKTYTCNVDHKPSNTKVDKRVESKYGPPCPPCPAPPVAGPSVFLFPPKPKDTLMISRTPEVTCVVVDVSQEDPEVQFNWYVDGVEVHNAKTKPREEQFNSTYRVVSVLTVLHQDWLNGKEYKCKVSNKGLPSSIEKTISKAKGQPREPQVYTLPPSQEEMTKNQVSLTCLVKGFYPSDIAVEWESNGQPENNYKTTPPVLDSDGSFFLYSRLTVDKSRWQEGNVFSCSVMHEALHNHYTQKSLSLSLGK heavy 2: EVQLVESGGGLVQPGGSLRLSCAASGFTFGSYGMAWVRQAPGKGLEWVSAISGSGDYTNYADSVKRRFTISRDNSKNTLYLQMSSLRAEDTAVYYCAKEKTGTTGYLYSGMDVWGQGTTVTVSSASTKGPSVFPLAPCSRSTSESTAALGCLVKDYFPEPVTVSWNSGALTSGVHTFPAVLQSSGLYSLSSVVTVPSSSLGTKTYTCNVDHKPSNTKVDKRVESKYGPPCPPCPAPPVAGPSVFLFPPKPKDTLMISRTPEVTCVVVDVSQEDPEVQFNWYVDGVEVHNAKTKPREEQFNSTYRVVSVLTVLHQDWLNGKEYKCKVSNKGLPSSIEKTISKAKGQPREPQVYTLPPSQEEMTKNQVSLTCLVKGFYPSDIAVEWESNGQPENNYKTTPPVLDSDGSFFLYSRLTVDKSRWQEGNVFSCSVMHEALHNRFTQKSLSLSPGK light: not shown	1.9	3850	61.2	0.101	0.000149	1.47e+06	77.5	–	–	–	–	–	–	0.287	2	98	–	–
REGN16432 (bispecific antibody, human IgG4 S228P, kappa, D1 arm from 30027P2, D2 arm from 21520P2, common light chain; also called CD40xCD40 (30027 x 21520)) heavy 1: EVQLVESGGGLVQPGGSLRLSCAASGFTFSSYAMNWVRQAPGKGLEWVSIISGTIGKTYYADSVKGRFTISRDNSKNTLYLQMNSLRGEDTAVYYCAKDTERDITGSPFDYWGQGTLVTVSSASTKGPSVFPLAPCSRSTSESTAALGCLVKDYFPEPVTVSWNSGALTSGVHTFPAVLQSSGLYSLSSVVTVPSSSLGTKTYTCNVDHKPSNTKVDKRVESKYGPPCPPCPAPPVAGPSVFLFPPKPKDTLMISRTPEVTCVVVDVSQEDPEVQFNWYVDGVEVHNAKTKPREEQFNSTYRVVSVLTVLHQDWLNGKEYKCKVSNKGLPSSIEKTISKAKGQPREPQVYTLPPSQEEMTKNQVSLTCLVKGFYPSDIAVEWESNGQPENNYKTTPPVLDSDGSFFLYSRLTVDKSRWQEGNVFSCSVMHEALHNHYTQKSLSLSLGK heavy 2: EVQLVESGGGLVQPGGSLRLSCAASGFTFGSYGMAWVRQAPGKGLEWVSAISGSGDYTNYADSVKRRFTISRDNSKNTLYLQMSSLRAEDTAVYYCAKEKTGTTGYLYSGMDVWGQGTTVTVSSASTKGPSVFPLAPCSRSTSESTAALGCLVKDYFPEPVTVSWNSGALTSGVHTFPAVLQSSGLYSLSSVVTVPSSSLGTKTYTCNVDHKPSNTKVDKRVESKYGPPCPPCPAPPVAGPSVFLFPPKPKDTLMISRTPEVTCVVVDVSQEDPEVQFNWYVDGVEVHNAKTKPREEQFNSTYRVVSVLTVLHQDWLNGKEYKCKVSNKGLPSSIEKTISKAKGQPREPQVYTLPPSQEEMTKNQVSLTCLVKGFYPSDIAVEWESNGQPENNYKTTPPVLDSDGSFFLYSRLTVDKSRWQEGNVFSCSVMHEALHNRFTQKSLSLSPGK light: not shown	1.1	3850	56.6	0.163	0.000125	769000	92.3	–	–	–	–	–	–	0.148	6	97	–	–
21519P2 (antibody, human IgG4 S228P, kappa, V domains shown, parental bivalent anti-CD40 mAb; common light chain; also called H4sH21519P2) VH: QLQLQESGPGLVRPSETLSLTCSVSGASMNTNNYYWGWIRQPPGKGLEWIGSGYYNGNTYYNPSLKSRVTISVDTSKNQFSLKLNSVTAADTAVYYCARQTPPRIIGSPNIWGQGTMVTVSS VL: not shown	1.5	2410	99	8.82	0.00339	–	3.4	0.4	10.3	205	0.181	886000	0.1	0.276	5	99	no binding (tested: 100 nM)	–

The next binders have a lower EC50 [1] than those just listed; values first:

EC50 [1] [nM]	MFI at 100 nM [1] [MFI]	100 nM Ag Bound [2] [RU]	Kd [2] [nM]	koff [2] [s⁻¹]	kon [2] [M⁻¹ s⁻¹]	t1/2 [2] [min]	100 nM Ag Bound [3] [RU]	100 nM Ag Bound [4] [RU]	Kd [4] [nM]	koff [4] [s⁻¹]	kon [4] [M⁻¹ s⁻¹]	t1/2 [4] [min]	IC50, 10 nM hCD40L, THP-1 NFkB-luc [5] [nM]	Max % activation, no ligand, THP-1 NFkB-luc [5] [%]	Max % inhibition, 10 nM hCD40L, THP-1 NFkB-luc [5] [%]	binding result [3]	EC50 (potentiation), 10 nM hCD40L, THP-1 NFkB-luc [5] [nM]	Binder
0.8	2450	76.6	25.1	0.0223	885000	0.5	-0.5	10.1	67.7	0.203	3e+06	0.1	0.437	1	97	–	–	21520P2 (antibody, human IgG4 S228P, kappa, V domains shown, parental bivalent anti-CD40 mAb; common light chain; also called H4sH21520P2) VH: EVQLVESGGGLVQPGGSLRLSCAASGFTFGSYGMAWVRQAPGKGLEWVSAISGSGDYTNYADSVKRRFTISRDNSKNTLYLQMSSLRAEDTAVYYCAKEKTGTTGYLYSGMDVWGQGTTVTVSS VL: not shown
0.45	2620	62	1.83	0.000998	546000	11.6	0.2	63.1	0.901	0.00102	1.14e+06	11.3	–	2	-61	no binding (tested: 100 nM)	0.00251	30027P2 (antibody, human IgG4 S228P, kappa, V domains shown, parental bivalent anti-CD40 mAb; common light chain; also called H4sH30027P2) VH: EVQLVESGGGLVQPGGSLRLSCAASGFTFSSYAMNWVRQAPGKGLEWVSIISGTIGKTYYADSVKGRFTISRDNSKNTLYLQMNSLRGEDTAVYYCAKDTERDITGSPFDYWGQGTLVTVSS VL: not shown
